Reference: US12679878B2, “CRF2 receptor agonists and their use in therapy” (SANOFI, priority 2020, dated 2026)
Starred links: 1 amine or outer side, 2 acyl side, 3 side chain; linkers in the order of their positions; H or OH if unused. Non-standard residues stand in square brackets, D forms with d. Groups on a side chain read outwards from the residue. No end group written: not given here. *: point of attachment. γGlu = O=C(O)[C@H](CCC(=O)[*:2])N[*:1]; Palmitoyl = CCCCCCCCCCCCCCCC(=O)*; Aib = CC(C)(N)C(=O)O

T1: anti-target CRF1R receptor (UniProt P34998 24-415, limits assumed)
T1 sequence (looked up): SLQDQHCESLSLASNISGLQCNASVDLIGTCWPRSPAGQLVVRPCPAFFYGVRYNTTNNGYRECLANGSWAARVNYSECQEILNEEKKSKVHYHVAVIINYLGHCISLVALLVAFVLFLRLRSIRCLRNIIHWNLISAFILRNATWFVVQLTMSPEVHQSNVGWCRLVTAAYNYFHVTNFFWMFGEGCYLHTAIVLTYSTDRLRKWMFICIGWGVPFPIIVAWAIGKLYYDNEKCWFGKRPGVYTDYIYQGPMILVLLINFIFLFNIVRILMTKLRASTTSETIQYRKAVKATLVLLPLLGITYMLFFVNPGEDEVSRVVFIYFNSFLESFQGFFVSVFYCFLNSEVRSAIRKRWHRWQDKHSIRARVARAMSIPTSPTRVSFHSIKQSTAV

B1: peptide of SEQ ID NO: 9 (peptide)
peptide: FTLSLDVPTKIK([γGlu-Palmitoyl])QKLLKQEKQKKQRQKAKTAKQILEQV-NH2
modifications: N-terminus assumed
SMILES: CCCCCCCCCCCCCCCC(=O)N[C@@H](CCC(=O)NCCCC[C@H](NC(=O)[C@@H](NC(=O)[C@H](CCCCN)NC(=O)[C@@H](NC(=O)[C@@H]1CCCN1C(=O)[C@@H](NC(=O)[C@H](CC(=O)O)NC(=O)[C@H](CC(C)C)NC(=O)[C@H](CO)NC(=O)[C@H](CC(C)C)NC(=O)[C@@H](NC(=O)[C@@H](N)Cc1ccccc1)[C@@H](C)O)C(C)C)[C@@H](C)O)[C@@H](C)CC)C(=O)N[C@@H](CCC(N)=O)C(=O)N[C@@H](CCCCN)C(=O)N[C@@H](CC(C)C)C(=O)N[C@@H](CC(C)C)C(=O)N[C@@H](CCCCN)C(=O)N[C@@H](CCC(N)=O)C(=O)N[C@@H](CCC(=O)O)C(=O)N[C@@H](CCCCN)C(=O)N[C@@H](CCC(N)=O)C(=O)N[C@@H](CCCCN)C(=O)N[C@@H](CCCCN)C(=O)N[C@@H](CCC(N)=O)C(=O)N[C@@H](CCCNC(=N)N)C(=O)N[C@@H](CCC(N)=O)C(=O)N[C@@H](CCCCN)C(=O)N[C@@H](C)C(=O)N[C@@H](CCCCN)C(=O)N[C@H](C(=O)N[C@@H](C)C(=O)N[C@@H](CCCCN)C(=O)N[C@@H](CCC(N)=O)C(=O)N[C@H](C(=O)N[C@@H](CC(C)C)C(=O)N[C@@H](CCC(=O)O)C(=O)N[C@@H](CCC(N)=O)C(=O)N[C@H](C(N)=O)C(C)C)[C@@H](C)CC)[C@@H](C)O)C(=O)O
B2: peptide of SEQ ID NO: 10 (peptide)
peptide: FTLSLDVPTKIK([γGlu-Palmitoyl])QKLLKQEKQKKQRQKAKTNKQILEQV-NH2
modifications: N-terminus assumed
SMILES: CCCCCCCCCCCCCCCC(=O)N[C@@H](CCC(=O)NCCCC[C@H](NC(=O)[C@@H](NC(=O)[C@H](CCCCN)NC(=O)[C@@H](NC(=O)[C@@H]1CCCN1C(=O)[C@@H](NC(=O)[C@H](CC(=O)O)NC(=O)[C@H](CC(C)C)NC(=O)[C@H](CO)NC(=O)[C@H](CC(C)C)NC(=O)[C@@H](NC(=O)[C@@H](N)Cc1ccccc1)[C@@H](C)O)C(C)C)[C@@H](C)O)[C@@H](C)CC)C(=O)N[C@@H](CCC(N)=O)C(=O)N[C@@H](CCCCN)C(=O)N[C@@H](CC(C)C)C(=O)N[C@@H](CC(C)C)C(=O)N[C@@H](CCCCN)C(=O)N[C@@H](CCC(N)=O)C(=O)N[C@@H](CCC(=O)O)C(=O)N[C@@H](CCCCN)C(=O)N[C@@H](CCC(N)=O)C(=O)N[C@@H](CCCCN)C(=O)N[C@@H](CCCCN)C(=O)N[C@@H](CCC(N)=O)C(=O)N[C@@H](CCCNC(=N)N)C(=O)N[C@@H](CCC(N)=O)C(=O)N[C@@H](CCCCN)C(=O)N[C@@H](C)C(=O)N[C@@H](CCCCN)C(=O)N[C@H](C(=O)N[C@@H](CC(N)=O)C(=O)N[C@@H](CCCCN)C(=O)N[C@@H](CCC(N)=O)C(=O)N[C@H](C(=O)N[C@@H](CC(C)C)C(=O)N[C@@H](CCC(=O)O)C(=O)N[C@@H](CCC(N)=O)C(=O)N[C@H](C(N)=O)C(C)C)[C@@H](C)CC)[C@@H](C)O)C(=O)O
B3: peptide of SEQ ID NO: 12 (peptide)
peptide: FTLSLDVPTKIK([γGlu-Palmitoyl])QKLLKQEKQRKQKQQAKTNAKILARV-NH2
modifications: N-terminus assumed
SMILES: CCCCCCCCCCCCCCCC(=O)N[C@@H](CCC(=O)NCCCC[C@H](NC(=O)[C@@H](NC(=O)[C@H](CCCCN)NC(=O)[C@@H](NC(=O)[C@@H]1CCCN1C(=O)[C@@H](NC(=O)[C@H](CC(=O)O)NC(=O)[C@H](CC(C)C)NC(=O)[C@H](CO)NC(=O)[C@H](CC(C)C)NC(=O)[C@@H](NC(=O)[C@@H](N)Cc1ccccc1)[C@@H](C)O)C(C)C)[C@@H](C)O)[C@@H](C)CC)C(=O)N[C@@H](CCC(N)=O)C(=O)N[C@@H](CCCCN)C(=O)N[C@@H](CC(C)C)C(=O)N[C@@H](CC(C)C)C(=O)N[C@@H](CCCCN)C(=O)N[C@@H](CCC(N)=O)C(=O)N[C@@H](CCC(=O)O)C(=O)N[C@@H](CCCCN)C(=O)N[C@@H](CCC(N)=O)C(=O)N[C@@H](CCCNC(=N)N)C(=O)N[C@@H](CCCCN)C(=O)N[C@@H](CCC(N)=O)C(=O)N[C@@H](CCCCN)C(=O)N[C@@H](CCC(N)=O)C(=O)N[C@@H](CCC(N)=O)C(=O)N[C@@H](C)C(=O)N[C@@H](CCCCN)C(=O)N[C@H](C(=O)N[C@@H](CC(N)=O)C(=O)N[C@@H](C)C(=O)N[C@@H](CCCCN)C(=O)N[C@H](C(=O)N[C@@H](CC(C)C)C(=O)N[C@@H](C)C(=O)N[C@@H](CCCNC(=N)N)C(=O)N[C@H](C(N)=O)C(C)C)[C@@H](C)CC)[C@@H](C)O)C(=O)O
B4: peptide of SEQ ID NO: 14 (peptide)
peptide: FTLSLDVPTKIK([γGlu-Palmitoyl])QKLLKQEKQRKQKQKAKTNAKILARV-NH2
modifications: N-terminus assumed
SMILES: CCCCCCCCCCCCCCCC(=O)N[C@@H](CCC(=O)NCCCC[C@H](NC(=O)[C@@H](NC(=O)[C@H](CCCCN)NC(=O)[C@@H](NC(=O)[C@@H]1CCCN1C(=O)[C@@H](NC(=O)[C@H](CC(=O)O)NC(=O)[C@H](CC(C)C)NC(=O)[C@H](CO)NC(=O)[C@H](CC(C)C)NC(=O)[C@@H](NC(=O)[C@@H](N)Cc1ccccc1)[C@@H](C)O)C(C)C)[C@@H](C)O)[C@@H](C)CC)C(=O)N[C@@H](CCC(N)=O)C(=O)N[C@@H](CCCCN)C(=O)N[C@@H](CC(C)C)C(=O)N[C@@H](CC(C)C)C(=O)N[C@@H](CCCCN)C(=O)N[C@@H](CCC(N)=O)C(=O)N[C@@H](CCC(=O)O)C(=O)N[C@@H](CCCCN)C(=O)N[C@@H](CCC(N)=O)C(=O)N[C@@H](CCCNC(=N)N)C(=O)N[C@@H](CCCCN)C(=O)N[C@@H](CCC(N)=O)C(=O)N[C@@H](CCCCN)C(=O)N[C@@H](CCC(N)=O)C(=O)N[C@@H](CCCCN)C(=O)N[C@@H](C)C(=O)N[C@@H](CCCCN)C(=O)N[C@H](C(=O)N[C@@H](CC(N)=O)C(=O)N[C@@H](C)C(=O)N[C@@H](CCCCN)C(=O)N[C@H](C(=O)N[C@@H](CC(C)C)C(=O)N[C@@H](C)C(=O)N[C@@H](CCCNC(=N)N)C(=O)N[C@H](C(N)=O)C(C)C)[C@@H](C)CC)[C@@H](C)O)C(=O)O
B5: peptide of SEQ ID NO: 19 (peptide)
peptide: IVLSLD[dV]PTKLK([γGlu-Palmitoyl])QKLLKQERQR[Aib]EREQAEKNKRILERV-NH2
modifications: N-terminus assumed
SMILES: CCCCCCCCCCCCCCCC(=O)N[C@@H](CCC(=O)NCCCC[C@H](NC(=O)[C@H](CC(C)C)NC(=O)[C@H](CCCCN)NC(=O)[C@@H](NC(=O)[C@@H]1CCCN1C(=O)[C@H](NC(=O)[C@H](CC(=O)O)NC(=O)[C@H](CC(C)C)NC(=O)[C@H](CO)NC(=O)[C@H](CC(C)C)NC(=O)[C@@H](NC(=O)[C@@H](N)[C@@H](C)CC)C(C)C)C(C)C)[C@@H](C)O)C(=O)N[C@@H](CCC(N)=O)C(=O)N[C@@H](CCCCN)C(=O)N[C@@H](CC(C)C)C(=O)N[C@@H](CC(C)C)C(=O)N[C@@H](CCCCN)C(=O)N[C@@H](CCC(N)=O)C(=O)N[C@@H](CCC(=O)O)C(=O)N[C@@H](CCCNC(=N)N)C(=O)N[C@@H](CCC(N)=O)C(=O)N[C@@H](CCCNC(=N)N)C(=O)NC(C)(C)C(=O)N[C@@H](CCC(=O)O)C(=O)N[C@@H](CCCNC(=N)N)C(=O)N[C@@H](CCC(=O)O)C(=O)N[C@@H](CCC(N)=O)C(=O)N[C@@H](C)C(=O)N[C@@H](CCC(=O)O)C(=O)N[C@@H](CCCCN)C(=O)N[C@@H](CC(N)=O)C(=O)N[C@@H](CCCCN)C(=O)N[C@@H](CCCNC(=N)N)C(=O)N[C@H](C(=O)N[C@@H](CC(C)C)C(=O)N[C@@H](CCC(=O)O)C(=O)N[C@@H](CCCNC(=N)N)C(=O)N[C@H](C(N)=O)C(C)C)[C@@H](C)CC)C(=O)O
B6: peptide of SEQ ID NO: 21 (peptide)
peptide: IVLSLD[dV]PTKLK([γGlu-Palmitoyl])QKLLKQERQRKE[Aib]EQAEKNKRILERV-NH2
modifications: N-terminus assumed
SMILES: CCCCCCCCCCCCCCCC(=O)N[C@@H](CCC(=O)NCCCC[C@H](NC(=O)[C@H](CC(C)C)NC(=O)[C@H](CCCCN)NC(=O)[C@@H](NC(=O)[C@@H]1CCCN1C(=O)[C@H](NC(=O)[C@H](CC(=O)O)NC(=O)[C@H](CC(C)C)NC(=O)[C@H](CO)NC(=O)[C@H](CC(C)C)NC(=O)[C@@H](NC(=O)[C@@H](N)[C@@H](C)CC)C(C)C)C(C)C)[C@@H](C)O)C(=O)N[C@@H](CCC(N)=O)C(=O)N[C@@H](CCCCN)C(=O)N[C@@H](CC(C)C)C(=O)N[C@@H](CC(C)C)C(=O)N[C@@H](CCCCN)C(=O)N[C@@H](CCC(N)=O)C(=O)N[C@@H](CCC(=O)O)C(=O)N[C@@H](CCCNC(=N)N)C(=O)N[C@@H](CCC(N)=O)C(=O)N[C@@H](CCCNC(=N)N)C(=O)N[C@@H](CCCCN)C(=O)N[C@@H](CCC(=O)O)C(=O)NC(C)(C)C(=O)N[C@@H](CCC(=O)O)C(=O)N[C@@H](CCC(N)=O)C(=O)N[C@@H](C)C(=O)N[C@@H](CCC(=O)O)C(=O)N[C@@H](CCCCN)C(=O)N[C@@H](CC(N)=O)C(=O)N[C@@H](CCCCN)C(=O)N[C@@H](CCCNC(=N)N)C(=O)N[C@H](C(=O)N[C@@H](CC(C)C)C(=O)N[C@@H](CCC(=O)O)C(=O)N[C@@H](CCCNC(=N)N)C(=O)N[C@H](C(N)=O)C(C)C)[C@@H](C)CC)C(=O)O

target: T1, anti-target CRF1R receptor; assay: cell-based or functional assay

Binder | EC50[nM] 0% HSA (cAMP, CRF1R-overexpression CHO cells) | Emax (%) (cAMP, CRF1R-overexpression CHO cells)
B1 | > 1000 nM | 14.9%
B2 | > 1000 nM | 10.2%
B3 | > 1000 nM | 41.8%
B4 | > 1000 nM | 14.1%
B5 | 571 nM | 57.4%
B6 | 618 nM | 59.2%
IVLSLD[dV]PTKLK([γGlu-Palmitoyl])QKLLKQERQRKEREQAEKNVRILERV-NH2 (not fully specified; printed as IVLSLDvPTKLK*QKLLKQERQRKEREQAEKNVRILERV-NH2) [peptide of SEQ ID NO: 32] | > 1000 nM | 27%
